Assay results published in US20200399369A1 (Sanofi, published 2020).

T1: Human CD3 (human)
T1 chain: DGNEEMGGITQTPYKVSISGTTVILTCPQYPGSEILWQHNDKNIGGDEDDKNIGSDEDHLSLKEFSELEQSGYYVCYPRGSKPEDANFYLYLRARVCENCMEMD

B1: CD38hyb5739/CD28sup x CD3mid_ENLQ DKTHT IgG4 FALA (other)
light 1: DIVMTQTPLSLSVTPGQPASISCKSSQSLVHENLQTYLSWYLQKPGQSPQSLIYKVSNRFSGVPDRFSGSGSGTDFTLKISRVEAEDVGVYYCGQGTQYPFTFGSGTKVEIKDKTHTDIQMTQSPSSLSASVGDRVTITCQASQNIYVWLNWYQQKPGKAPKLLIYKASNLHTGVPSRFSGSGSGTDFTLTISSLQPEDIATYYCQQGQTYPYTFGQGTKLEIKDKTHTRTVAAPSVFIFPPSDEQLKSGTASVVCLLNNFYPREAKVQWKVDNALQSGNSQESVTEQDSKDSTYSLSSTLTLSKADYEKHKVYACEVTHQGLSSPVTKSFNRGEC
heavy 1: QVQLVQSGAEVVKPGASVKVSCKASGYTFTSYYIHWVRQAPGQGLEWIGSIYPGNVNTNYAQKFQGRATLTVDTSISTAYMELSRLRSDDTAVYYCTRSHYGLDWNFDVWGKGTTVTVSSDKTHTQVQLVESGGGVVQPGRSLRLSCAASGFTFTKAWMHWVRQAPGKQLEWVAQIKDKSNSYATYYADSVKGRFTISRDDSKNTLYLQMNSLRAEDTAVYYCRGVYYALSPFDYWGQGTLVTVSSDKTHTASTKGPSVFPLAPCSRSTSESTAALGCLVKDYFPEPVTVSWNSGALTSGVHTFPAVLQSSGLYSLSSVVTVPSSSLGTKTYTCNVDHKPSNTKVDKRVESKYGPPCPPCPAPEAAGGPSVFLFPPKPKDTLMISRTPEVTCVVVDVSQEDPEVQFNWYVDGVEVHNAKTKPREEQFNSTYRVVSVLTVLHQDWLNGKEYKCKVSNKGLPSSIEKTISKAKGQPREPQVCTLPPSQEEMTKNQVSLSCAVKGFYPSDIAVEWESNGQPENNYKTTPPVLDSDGSFFLVSKLTVDKSRWQEGNVFSCSVMHEALHNHYTQKSLSLSLG
heavy 2: QVQLQQSGPELVRPGTSVKVSCKASGYAFTTYLVEWIKQRPGQGLEWIGVINPGSGSTNYNEKFKGKATLTVDRSSTTAYMHLSGLTSDDSAVYFCARYAYGYWGQGTTLTVSSASTKGPSVFPLAPCSRSTSESTAALGCLVKDYFPEPVTVSWNSGALTSGVHTFPAVLQSSGLYSLSSVVTVPSSSLGTKTYTCNVDHKPSNTKVDKRVESKYGPPCPPCPAPEAAGGPSVFLFPPKPKDTLMISRTPEVTCVVVDVSQEDPEVQFNWYVDGVEVHNAKTKPREEQFNSTYRVVSVLTVLHQDWLNGKEYKCKVSNKGLPSSIEKTISKAKGQPREPQVYTLPPCQEEMTKNQVSLWCLVKGFYPSDIAVEWESNGQPENNYKTTPPVLDSDGSFFLYSKLTVDKSRWQEGNVFSCSVMHEALHNHYTQKSLSLSLG
light 2: DIVMTQSQKFMSASVGDRVSITCKASQNVGTAVAWYQQQPGHSPKQLIYSASNRYTGVPDRFTGSGAGTDFTLTISNIQSEDLADYFCQQYSTYPFTFGSGTKLEIKRTVAAPSVFIFPPSDEQLKSGTASVVCLLNNFYPREAKVQWKVDNALQSGNSQESVTEQDSKDSTYSLSSTLTLSKADYEKHKVYACEVTHQGLSSPVTKSFNRGEC
notes: Trispecific antibody; also called BP # 6′
B2: AntiCD38_hyb_5739 (antibody, V domains shown)
VH: QVQLQQSGPELVRPGTSVKVSCKASGYAFTTYLVEWIKQRPGQGLEWIGVINPGSGSTNYNEKFKGKATLTVDRSSTTAYMHLSGLTSDDSAVYFCARYAYGYWGQGTTLTVSS
VL: DIVMTQSQKFMSASVGDRVSITCKASQNVGTAVAWYQQQPGHSPKQLIYSASNRYTGVPDRFTGSGAGTDFTLTISNIQSEDLADYFCQQYSTYPFTFGSGTKLEIK
B3: AntiCD38_hyb_6284 (antibody, V domains shown)
VH: QVQLLQSGAELVRPGVSVKISCTGSGYSFTNYAVHWVKQSHVKSLEWIGVISPYYGDTTYNQKFTGKATMTVDKSSSTAYMELARLTSEDSAIYFCARRFEGFYYSMDYWGQGTSVTVSS
VL: DVVMIQTPLSLPVSLGDQASISCRPSQSLVHSNGNTYLNWYLQRPGQSPKLLIYKVSKRFSGVPDRFSGSGSGTDFTLKISRVEAEDLGVYLCSQSTHVPLTFGSGTQLEIK
B4: AntiCD38_hhy_1195 (antibody, V domains shown)
VH: QVQLVESGGGVVQPGRSLRLSCAASGFTFSSYGMYWVRQAPGKGLEWVAVIWYDGSNKYYADSVKGRFTISRDNSKNTLYLQMNSLRAEDTAVYHCARDPGLRYFDGGMDVWGQGTTVTVSS
VL: DIQLTQSPSFLSASVGDRVTITCRASQGISSYLAWYQQKPGKAPKLLIFAASTLHSGVPSRFSGSGSGTEFTLTISSLQPEDFATYYCQQLNSFPYTFGQGTKLEIK
B5: AntiCD38_hhy_992 (antibody, V domains shown)
VH: QVQLVQSGAEVKKPGASVKVSCKVSGYTLTEFSIHWVRQAPGQGLEWMGGFDPEDGETIYAQKFQGRVIMTEDTSTDTAYMEMNSLRSEDTAIYYCTTGRFFDWFWGQGTLVTVSS
VL: EIILTQSPAILSLSPGERATLSCRASQSVISRFLSWYQVKPGLAPRLLIYGASTRATGIPVRFSGSGSGTDFSLTISSLQPEDCAVYYCQQDSNLPITFGQGTRLEIK

How the values were obtained:
cynomolgus monkey CD38 [1] = target: T2, cynomolgus monkey CD38 (cynomolgus monkey, UniProt Q5VAN0 44-301, limits assumed); test: ELISA, antigen-coated plate
T2 construct: also called Cyno CD38; cynoCD38
Protocol: (§1) Binding affinities to each target antigen by the CD38/CD28×CD3 T cell engagers were measured by ELISA. Briefly, each antigen was used to coat the 96-well Immuno Plate (Thermo Fisher Scientific) overnight at 4° C. using 200 ng/well in PBS (pH7.4) of each antigen. The coated plate was blocked using 5% skim milk+2% BSA in PBS for one hour at RT, followed by washing with PBS+0.25% Tween 20 three times (Aqua Max 400, Molecular Devices). Serial dilution of antibodies (trispecific and control Abs) were prepared and added onto the ELISA plates (100 μl/well in duplicate), incubated at room temperature (RT) for one hour, followed by washing 5 times with PBS+0.25% Tween 20. […] The reaction was terminated by adding 50 μl 1M H₂SO₄, and OD450 was measured using SpectraMax M5 (Molecular Devices) and analyzed using SoftMax Pro6.3 software (Molecular Devices). The final data was transferred to GraphPad Prism software (GraphPad Software, CA, USA), and plotted. EC50 was calculated using the same software.
(§2) The binding affinities of selected CD38/CD28sup×CD3mid_ENLQ DKTHT IgG4 FALA trispecific antibodies with alternative anti-CD38 binding domains for human CD3, human CD28, human CD38 and cynomolgus monkey CD38 were then determined by ELISA as described above.

human CD38 [2] = target: T3, human CD38 (human, UniProt P28907 43-300, limits assumed); test: ELISA, antigen-coated plate
T3 construct: also called hCD38; huCD38
Protocol: as §1, §2

Human CD3 = target: T1, Human CD3; test: ELISA, antigen-coated plate
Protocol: as §1, §2

Human CD28 = target: T4, Human CD28 (human, UniProt P10747 19-152, limits assumed); test: ELISA, antigen-coated plate
T4 construct: also called hCD28
Protocol: as §1, §2

Human CD38-His = target: T5, Human CD38-His (human, UniProt P28907 43-300, limits assumed); test: SPR (BIACORE 3000), capture format, 1:1 Langmuir model
T5 construct: Bought antigen; also called human CD38 (SPR antigen); not shown: His tag

[3] = target: T6, human CD38 on tumor cell lines NCI-H929 (CD38+/CD28+) and OCI-LY19 (CD38+/CD28-) (human, UniProt P28907 1-300); test: cell-based or functional assay
[4] = target: T6, human CD38 on tumor cell lines NCI-H929 …; test: cell-based or functional assay; remark: listed apart in the source
cynomolgus monkey CD38 [5] = target: T2, cynomolgus monkey CD38; test: FACS
human CD38 [6] = target: T3, human CD38; test: FACS
cynomolgus monkey CD38 [7] = target: T2, cynomolgus monkey CD38; test: ELISA
human CD38 [8] = target: T3, human CD38; test: ELISA
cynomolgus monkey CD38 [9] = target: T2, cynomolgus monkey CD38; test: SPR
human CD38 [10] = target: T3, human CD38; test: SPR

Row | Binder | EC50 (cynomolgus monkey CD38 [1]) [nM] | EC50 (human CD38 [2]) [nM] | EC50 (Human CD3) [nM] | EC50 (Human CD28) [nM] | Kd (Human CD38-His) [nM] | koff (Human CD38-His) [s⁻¹] | kon (Human CD38-His) [M⁻¹ s⁻¹] | EC50 of in vitro killing of OCI-LY19 (CD38+/CD28-) cells, With Dara [3] [nM] | EC50 of in vitro killing of OCI-LY19 (CD38+/CD28-) cells, With human IgG1 [3] [nM] | EC50 of in vitro killing of NCI-H929 (CD38+/CD28+) cells, With Dara [4] [nM] | EC50 of in vitro killing of NCI-H929 (CD38+/CD28+) cells, With human IgG1 [4] [nM] | EC50 (cynomolgus monkey CD38 [5]) [nM] | EC50 (human CD38 [6]) [nM] | EC50 (cynomolgus monkey CD38 [7]) [nM] | EC50 (human CD38 [8]) [nM] | Kd (cynomolgus monkey CD38 [9]) [nM] | Kd (human CD38 [10]) [nM]
1 | B1 | 1.63 | 0.984 | 10.8 | 0.825 | 5.57 | 0.00546 | 980000 | 0.219 | 0.061 | 0.00911 | 0.00274 |  |  |  |  |  | 
2 | B2 |  |  |  |  |  |  |  |  |  |  |  | 0.5 | 0.3 | 0.09 | 0.12 |  | 
3 | B3 |  |  |  |  |  |  |  |  |  |  |  | 0.7 | 0.4 | 0.13 | 0.11 |  | 
4 | B4 |  |  |  |  |  |  |  |  |  |  |  | 15 | 38 | 0.86 | 1.4 | 26 | 40
5 | B5 |  |  |  |  |  |  |  |  |  |  |  | 288 | 100 | 0.08 | 0.09 | 6.12 | 0.365
